Measurements published in patent publication US11440938B2, “Stabilized minimal coiled-coil mimetics” (NEW YORK UNIVERSITY, priority 2015, dated 2022).
Values joined by “and” are separate entries in the source; they are usually repeats but may differ in a detail not shown here. Identical values can stand only once. Like-named read-outs stand apart in the source and are kept apart here. Blank lines part the entries; values can stand above or below the molecule they belong to. Bridges are numbered along the chain shown (N, C = ends). Where no end group is shown, it is not given here.

Legend:
[1] = Circular dichroism spectroscopy of helical conformational stability; type: physicochemical; settings: 50 mM aqueous KF, pH 7.4, 20 μM peptide
[2] = target: T1, fluorescein-labeled N2B peptide (NHR2-binding motif of E-proteins) (Homo sapiens, UniProt Q99081); assay: Fluorescence polarization direct binding assay with fluorescein-labeled N2B peptide (flu-N2B); settings: 100 nM flu-N2B, 25° C., 10 mM Tris 20 mM NaCl pH 7.4, 0.1% pluronic F-68, triplicate, listed as NHR2482-551, read-out: Kd (binding affinity to fluorescein-labeled N2B peptide)
[3] = target: T1, fluorescein-labeled N2B peptide (NHR2-binding motif of E-proteins); settings: Sun et al., Nature 500:93 (2013); read-out: KD with flu-N2B, literature reported; cited from earlier work

Molecule: cyclo(GGSSGGELAELEWRLGGSNGGLAERIARLR (macrocyclic; Cyclic peptide AB-2; (1)..(1) Position 1 and 30 are linked by a peptide bond to form a cyclic peptide; (30)..(30) Position 1 and 30 are linked by a peptide bond to form a cyclic peptide)
Helical character by CD (in words) [1]: minimal helicity
Minimum at 222/208 (ratio of CD bands) [1]: 0.62
|θ222| (CD ellipticity at 222 nm) [1]: 8950

Molecule: ECAELEWRLGGSSGGLAERIARCR (disulfide 2-23; not fully specified (N-terminus, C-terminus)) [AB-3]
Helical character by CD (in words) [1]: did not provide significant helical stabilization
Minimum at 222/208 (ratio of CD bands) [1]: 0.62
|θ222| (CD ellipticity at 222 nm) [1]: 9460

Molecule: Ac-LWERIARLR-NH2 [B]
Helical character by CD (in words) [1]: nonhelical signatures

Molecule: Ac-ELAELEWRL-NH2
Helical character by CD (in words) [1]: nonhelical signatures

Molecule: AB-1: HBS-A helix joined to peptide B by a GGSSGG linker; N-terminal HBS constraint (SEQ ID NO:3) (XELXELEWRLGGSSGGLAERIARLR; not fully specified; HBS constraint; Hydrogen bond surrogate peptide AB-1; (1)..(1) Xaa at position 1 is pentenoic acid; (4)..(4) Xaa at position 4 is N-allylalanine)
Helical character by CD (in words) [1]: weakly helical signature
Minimum at 222/208 (ratio of CD bands) [1]: 0.73
|θ222| (CD ellipticity at 222 nm) [1]: 8475

Kd [2]: 356 µM and 363 µM
B1: NHR2: native GST-tagged NHR2 coiled-coil domain (482-551) of AML1-ETO, expressed in E. coli (protein, UniProt Q06455 482-551, looked up, fragment)
chain: ERAKMERTVAEAKRQAAEDALAVINQQEDSSESCWNCGRKASETCSGCNTARYCGSFCQHKDWEKHHHIC
modifications: NHR2 coiled-coil domain GST tag
notes: native GST-tagged NHR2 coiled-coil domain (482-551) of AML1-ETO, expressed in E. coli
Kd [3]: 380 ± 18 µM
